Experimental data taken from US20020142964A1 (published 2002).
Positions count from the first letter of the chain named. In names and notes the source's numbering stands. Blank lines part the entries; values can stand above or below the binder they belong to.

Tests used:
[1] = target: T1, human G-CSF receptor (human, UniProt Q99062 25-836); test: cell-based or functional assay
T1 sequence (looked up): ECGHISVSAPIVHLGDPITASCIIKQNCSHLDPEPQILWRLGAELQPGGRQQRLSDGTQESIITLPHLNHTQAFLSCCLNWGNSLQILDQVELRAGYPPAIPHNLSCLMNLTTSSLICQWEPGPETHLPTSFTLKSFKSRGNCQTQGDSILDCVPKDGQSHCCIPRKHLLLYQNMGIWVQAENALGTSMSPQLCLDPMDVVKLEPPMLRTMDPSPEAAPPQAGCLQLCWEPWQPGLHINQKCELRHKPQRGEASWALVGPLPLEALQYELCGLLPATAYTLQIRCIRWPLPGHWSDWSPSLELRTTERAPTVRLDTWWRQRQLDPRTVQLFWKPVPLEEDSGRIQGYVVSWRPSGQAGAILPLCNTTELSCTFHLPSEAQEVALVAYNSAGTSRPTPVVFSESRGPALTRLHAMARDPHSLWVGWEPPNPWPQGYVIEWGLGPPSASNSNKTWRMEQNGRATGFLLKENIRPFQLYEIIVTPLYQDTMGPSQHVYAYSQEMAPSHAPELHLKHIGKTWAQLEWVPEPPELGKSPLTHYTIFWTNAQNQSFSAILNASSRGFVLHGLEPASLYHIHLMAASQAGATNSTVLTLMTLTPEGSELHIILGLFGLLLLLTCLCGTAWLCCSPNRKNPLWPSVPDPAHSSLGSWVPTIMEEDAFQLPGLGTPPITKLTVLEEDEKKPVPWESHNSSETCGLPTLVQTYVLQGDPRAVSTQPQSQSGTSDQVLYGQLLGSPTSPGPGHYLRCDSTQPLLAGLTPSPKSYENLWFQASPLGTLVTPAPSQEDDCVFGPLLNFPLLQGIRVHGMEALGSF

[2] = target: T1, human G-CSF receptor; test: cell-based or functional assay; remark: listed apart in the source

- EC50, luciferase reporter assay in BaF3/hGCSF-R/pfos-lux cells (Primary assay 2) [1]: 0.03 nM
B1: non-conjugated hG-CSF (Neupogen®) (ligand)
chain: TPLGPASSLPQSFLLKCLEQVRKIQGDGAALQEKLCATYKLCHPEELVLLGHSLGIPWAPLSSCPSQALQLAGCLSQLHSGLFLYQGLLQALEGISPELGPTLDTLQLDVADFATTIWQQMEELGMAPALQPTQGAMPAFASAFQRRAGGVLVASHLQSFLEVSYRVLRHLAQP

- Specific activity (% of Neupogen®), from EC50 in luciferase reporter assay [2]: 8 % of Neupogen®
B3: Single-chain G-CSF dimer (K16R K34R)copy 1,2 PEG12000 (ligand)
chain: TPLGPASSLPQSFLLRCLEQVRKIQGDGAALQERLCATYKLCHPEELVLLGHSLGIPWAPLSSCPSQALQLAGCLSQLHSGLFLYQGLLQALEGISPELGPTLDTLQLDVADFATTIWQQMEELGMAPALQPTQGAMPAFASAFQRRAGGVLVASHLQSFLEVSYRVLRHLAQPTPLGPASSLPQSFLLRCLEQVRKIQGDGAALQERLCATYKLCHPEELVLLGHSLGIPWAPLSSCPSQALQLAGCLSQLHSGLFLYQGLLQALEGISPELGPTLDTLQLDVADFATTIWQQMEELGMAPALQPTQGAMPAFASAFQRRAGGVLVASHLQSFLEVSYRVLRHLAQP
modifications: SPA-PEG 12000 covalently linked to the available PEGylation sites; number and positions not stated

- Specific activity (% of Neupogen®), from EC50 in luciferase reporter assay [2]: 19 % of Neupogen®
B4: Single-chain G-CSF dimer (K16R K34R)copy 1,2 PEG5000 (ligand)
chain: B3 chain
modifications: SPA-PEG 5000 covalently linked to the available PEGylation sites; number and positions not stated

- Specific activity (% of Neupogen®), from EC50 in luciferase reporter assay [2]: 25 % of Neupogen®
B6: Single-chain G-CSF dimer PEG20000 (ligand)
chain: B3 chain with R16K, R34K, R190K, R208K
modifications: SPA-PEG 20000 covalently linked to the available PEGylation sites; number and positions not stated

- Specific activity (% of Neupogen®), from EC50 in luciferase reporter assay [2]: 62 % of Neupogen®
B8: Single-chain G-CSF dimer PEG12000 (ligand)
chain: B3 chain with R16K, R34K, R190K, R208K
modifications: SPA-PEG 12000 covalently linked to the available PEGylation sites; number and positions not stated

- Specific activity (% of Neupogen®), from EC50 in luciferase reporter assay [2]: 135 % of Neupogen®
B11: Single-chain G-CSF dimer (K16R)copy 1,2 (ligand)
chain: B3 chain with R34K, R208K

- Specific activity (% of Neupogen®), from EC50 in luciferase reporter assay [2]: 120 % of Neupogen®
B12: Single-chain G-CSF dimer PEG5000 (ligand)
chain: B3 chain with R16K, R34K, R190K, R208K
modifications: SPA-PEG 5000 covalently linked to the available PEGylation sites; number and positions not stated

The remaining lines, values behind:

B2: Single-chain G-CSF dimer (K16R K34R K40R)copy 1,2 (ligand)
chain: B3 chain with K40R, K214R
- Specific activity (% of Neupogen®), from EC50 in luciferase reporter assay [2]: 300 % of Neupogen®

B5: Single-chain G-CSF dimer (K16R K34R K40R)copy 1,2 PEG5000 (ligand)
chain: B3 chain with K40R, K214R
modifications: SPA-PEG 5000 covalently linked to the available PEGylation sites; number and positions not stated
- Specific activity (% of Neupogen®), from EC50 in luciferase reporter assay [2]: 10 % of Neupogen®

B7: Single-chain G-CSF dimer (ligand)
chain: B3 chain with R16K, R34K, R190K, R208K
- Specific activity (% of Neupogen®), from EC50 in luciferase reporter assay [2]: 214 % of Neupogen®

B9: Single-chain G-CSF dimer (K16R K34R K40R)copy 1,2 PEG12000 (ligand)
chain: B3 chain with K40R, K214R
modifications: SPA-PEG 12000 covalently linked to the available PEGylation sites; number and positions not stated
- Specific activity (% of Neupogen®), from EC50 in luciferase reporter assay [2]: 10 % of Neupogen®

B10: Single-chain G-CSF dimer (K16R K34R)copy 1,2 (ligand)
chain: B3 chain
- Specific activity (% of Neupogen®), from EC50 in luciferase reporter assay [2]: 329 % of Neupogen®
